Target: microtubule polymers (alpha/beta tubulin)
Experiment: co-sedimentation

B1: Smc5-2KE hinge domain (residues 215 to 885, K624E K631E) (domain or fragment)
chain: LRELQGNEQSLQKDLDFKKAKIVHLRQESDKLRKSVESLRDFQNKKGEIELHSQLLPYVKVKDHKEKLNIYKEEYERAKANLRAILKDKKPFANTKKTLENQVEELTEKCSLKTDEFLKAKEKINEIFEKLNTIRDEVIKKKNQNEYYRGRTKKLQATIISTKEDFLRSQEILAQTHLPEKSVFEDIDIKRKEIINKEGEIRDLISEIDAKANAINHEMRSIQRQAESKTKSLTTTDKIGILNQDQDLKEVRDAVLMVREHPEMKDKILEPPIMTVSAINAQFAAYLAQCVDYNTSKALTVVDSDSYKLFANPILDKFKVNLRELSSADTTPPVPAETVRDLGFEGYLSDFITGDKRVMKMLCQTSKIHTIPVSRRELTPAQIKKLITPRPNGKILFKRIIHGNRLVDIEQSAYGSEQVFPTDVSIKQTNFYQGSIMSNEQKIRIENEIINLKNEYNDRKSTLDALSNQKSGYRHELSELASKNDDINREAHQLNEIRKKYTMRKSTIETLREKLDQLKREARKDVSQKIKDIDDQIQQLLLKQRHLLSKMASSMKSLKNCQKELISTQILQFEAQNMDVSMNDVIGFFNEREADLKSQYEDKKKFVKEMRDTPEFQSWMREIRSYDQDTKEKLNKVAEKYEEEGNFNLSFVQDVLDKLESEIAMVNHDES
- fold reduction in binding affinity against wild-type Smc5: 3 fold

— doi:10.1101/2024.11.13.623393
